The values that follow come from article PMC9792439 (Biochimica et biophysica acta. General subjects, 2022).

This test deals with GST-tagged wild type human UBQLN2 (human, UniProt Q9UHD9 1-624). Briefly: pull-down.
GST-tagged wild type human UBQLN2, sequence (Q9UHD9 whole entry): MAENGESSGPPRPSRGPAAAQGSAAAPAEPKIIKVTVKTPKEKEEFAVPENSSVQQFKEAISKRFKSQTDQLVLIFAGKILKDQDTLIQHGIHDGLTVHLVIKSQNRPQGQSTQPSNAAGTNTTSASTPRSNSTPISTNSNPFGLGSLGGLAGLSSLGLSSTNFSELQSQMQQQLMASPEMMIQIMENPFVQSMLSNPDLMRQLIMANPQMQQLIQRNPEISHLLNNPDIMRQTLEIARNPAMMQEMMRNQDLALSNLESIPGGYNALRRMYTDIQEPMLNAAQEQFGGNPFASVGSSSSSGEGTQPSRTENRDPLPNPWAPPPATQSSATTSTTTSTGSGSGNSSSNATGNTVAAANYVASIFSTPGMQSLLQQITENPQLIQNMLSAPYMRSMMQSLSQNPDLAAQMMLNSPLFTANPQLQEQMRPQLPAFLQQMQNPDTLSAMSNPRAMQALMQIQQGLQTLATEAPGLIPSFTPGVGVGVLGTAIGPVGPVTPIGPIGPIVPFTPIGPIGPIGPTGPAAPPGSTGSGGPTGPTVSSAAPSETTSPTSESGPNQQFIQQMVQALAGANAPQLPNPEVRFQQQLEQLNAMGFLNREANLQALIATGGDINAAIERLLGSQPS

B1: HSPA1B ATP-binding domain (1 to 385 aa) with 6 His tag (domain or fragment)
chain: not shown
For B1, the binding result is reported as “binds”.
